# Biological target: T1, Soluble CTLA-4-Ig (human, UniProt P16410 36-161, FITC-conjugated in the two-colour FACS assays; unlabelled and detected with FITC goat anti-human IgG in the concentration-dependent assay)
# T1 construct: extracellular domain; Bought from R&D Systems; also called sCTLA-4-Ig; CTLA-4-Ig Fc; not shown: Fc portion of human IgG1
# Assay: two-colour FACS profile on transfected cells; score of preference for CTLA-4-Ig over CD28-Ig vs WT hB7-1
# T1 sequence (P16410 36-161): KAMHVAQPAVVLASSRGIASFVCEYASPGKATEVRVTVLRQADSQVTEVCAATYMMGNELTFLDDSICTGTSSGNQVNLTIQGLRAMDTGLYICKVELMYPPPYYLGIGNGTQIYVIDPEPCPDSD
row,Binder,Binding Score
1,Round 2 CTLA4BP 2x1-c9 (ligand) VIHVTKEVKEVATLSCGHNVSAEELAQTRIYWQKEKKMVLTMMSGDMNIWPEYKNRTIFDITNNLSIVILALRPSDEGTYECVVLEYEKDAFKREHLAEVMLSVKADFPTPSITDFEIPTSNIRRIICSTSGGFPEPRLAWMEDGEELNAISTTASQDPETELYTVSSKLDFNMTTNHSFMCLIKYGHLRVNQTFNWNTPKQEHFPDNLLPSWAITLISVNGIFVICCLTHCFAPRCRERRRNERLRRESVCPV,1
2,Round 2 CTLA4BP 2x2-f3 (ligand) VIYVTKEVKEVATLSCGHNVSVEELAQTRIYWQKEKKMVLIMMSGDMNIWPEYKNRTIFDITNNLSIVILALRPSDEGTECVVLKYEKDAFKREHLAEVTLSVKADFPTPSISDFEIPPSNIRRIICSTSGGFPEPHLSWLENGEELNAINTTVSQDPGTELYTVSSKLDFNMTTNHSFMCLIKYGHLRVNQTFNWNTPKQEHFPDNLLPSWAITLISVNGIFVICCLTYCFAPRCRERRRNERLRRESVCPV,1
3,Round 2 CTLA4BP 2x1-e2 (ligand) VIHVTKEVKEVATLSCGHNVSDEELAQTRIHWQKEKKMVLTMMSGDMNIWPEYKNRTIFDITNNLSIVILALRPSDEGTYECVVLKYEKDAFKREHLAEVTLSVKADFPTPSISDFEIPPSNIRRIICSTSGGFPEPHLSWLENGEELNAINTTVSQDPGTELYTVSSKLDFNMTTNHSFMCLIKYGHLRVNQTFNWNTPKQEHFPDNLLPSAITLISANGIFVICCLTYCFAPRCRERRRNERLRRESIHPV,1
4,Round 2 CTLA4BP-5x3-10e (ligand) VIHVTKEVKEVATLSCGHNVSVEELAQTRIYWQKEKKMVLTMMSGDMNIWPEYKNRTIFDITNNLSIVILALRPSDEGTYECVVLEYEKDAFKREHLAEVTLSVKADFPTPSISDFEIPPSNIRRIICSTSGGFPEPHLFWLENGEELNAINTTVSQDPETELYAVSSKLDFNMTTNHSFMCLIKYGHLRVNQTFNWNTPKQEHFPDNLLPSWAITLISANGIFVICCLTYCFAPRCRERKSNERLRRESVHPV,2
5,Round 2 CTLA4BP-5x3-11b (ligand) VIHVTKEVKEVATLSCGHNVSVEELAQTRIYWQKEKKMVLTMMSGDMNIWPEYKNRTIFDITNNLSIVILALRSSDEGTYECVVLKYEKDAFKREHLAEVTLSVKADFPTPSITDFEIPPSNIRRIICSTSGGFPEPHLSWLENGEELNAISTTVSQDPETELYTVSSKLDFNMTTNRSFVCLIKYGHLRVNQTFNWNTPKQEHFPDNLLPSWAITLISVNGIFVICCLTYCFAPRCRERRSNERLRRESVRPV,1
6,Round 2 CTLA4BP-5x5-2e (ligand) VIHVTKEVKEVATLSCGLNVSVEELAQTRIHWQKEKKMVLTMMSGDMNIWPEYKNRTIFDITNNLSIVILALRPSDEGTYECVVLKYEKDAFKREHLAEVMLSVKADFPTPSISDFEIPPSNIRRIICSTSGGFPEPHLSWLENGEELNAINTTVSQDPETELYAVSSKLDFNMTTNHSFMCLIKYGHLRVNQTFNWNTPKQEHFPDNLLPSWAITLISVNGIFVICCLTYCFAPRCRERRRNETLRRESVRPV,2
7,Round 2 CTLA4BP-5x5-6e (ligand) VIHVTKEVKEVATLSCGHNVSVEELAQTRIHWQKEKKMVLTMMSGDMNIWPEYKNRTIFDITNNLSIVILALRPSDEGTYECVVLKYEKDAFKREHLAEVMLSVKADFPTPSITDFEIPPSNIRRIICSTSGGFPEPHLSWLENGEELNAISTTVSQDPETELYTVSSKLDFNMTTNHSFMCLIKYGHLRVNQTFNWNTTKQEHFPDNLLPSWAITLISANGIFVICCLTHCFAPRCRERKRNERLRRESVRPV,2
8,Round 2 CTLA4BP-5x9-12c (ligand) VIHVTKEVKEVATLSCGHNVSVEELAQTRIHWQKEKKMVLTMMSGDMNIWPEYKNRTIFDITNNLSIVILALRPSDEGTYECVVLKYEKDAFKREHLAEVMLSVKADFPTPSITDFEIPPSNIRRIICSTSGGFPEPHLSWLENGEELNAINTTASQDPETELYTVSSKLDFNMTTNHSFMCLIKYGHLRVNQTFNWNTPKQEHFPDNLLPSWAITLISVNGIFVICCLTYCFAPRCRERKSNERLRRESVRPV,2
9,Round 2 CTLA4BP-5x4-1f (ligand) VIHVTKEVKEVATLSCGHNVSVEELAQTRIHWQKEKKMVLTMMSGDMNIWPEYKNRTIFDITNNLSIVILALRPSDEGTYECVVLKYEKDAFKREHLAEVMLSVKADFPTPSISDFEIPTSNIRRIICSTSGGFPEPHLFWLENGEELNAINTTVSQDPETELYTVSSKLDFNMTTNHSFMCLIKYGHLRVNQTFNWNTPKQEHFPDNLLPSWAITLISVNGIFVICCLTYCFAPRCRERRRNERLRRESVCPV,2
10,Round 2 CTLA4BP-5x8-1f (ligand) VIHVTKEVKEVATLSCGHNVSVEELAQTRIHWQKEKKMVLTMMSGDMNIWPEYKNRTIFDITNNLSIVILALRPSDEGTYECVVLKYEKDAFKREHLAEVMLSVKADFPTPSITDFEIPPSNIRRIICSASGGFPEPHLFWLENGEELNAINTTVSQDPETELYAVSSKLDFNMTTNHSFMCLIRYGHLRVNQTFNWNTPKQEHFPDNLLPSWAITLISVNGIFVICCLTYCFAPRCRERKSNERLRRESVRPV,2
11,Round 2 CTLA4BP-5x4-11d (ligand) VIHVTKEVKEVATLSCGLNVSVEELAQTRIHWQKEKKMVLTMMSGDMNIWPEYKNRTIFDITNNLSIVILALRPSDEGTYECVVLKYDKDAFKREHLAEVTLSVKADFPTPSISDFEIPPSNIRRIICSTSGGFPEPHLSWLENGEELNAINTTVSQDPETELYTVSSKLDFNMTANHSFVCLIKYGHLRVNQTFNWNTPKQEHFPDNLLPSWAITLISVNGIFVICCLTYRFAPRCRERKSNERLRRESVRPV,2
12,"Round 2 CTLA4BP-5x4-12c (ligand, Full-length clone on transiently or stably transfected 293 cells; The end 288 is the end of the entry as counted; also called R2 CTLA-4BP 5x4-12c; clone 12c) VIHVTKEVKEVATLSCGHNVSVEELAQTRIHWQKEKKMVLTMMSGDMNIWPEYKNRTIFDITNNLSIVILALRPSDEGTYECVVLKYEKDAFKREHLAEVMLSVKADFPTPSISDFEIPPSNIRRIICSTSGGFPEPHLFWLENGEELNAINTTVSQDPETELYTVSSKLDFNMTTNHSFMCLIKYGHLRVNQTFNWNTPKQEHFPDNLLPSWAITLISANGIFVICCLTYRFAPRCRERKSNETLRRESVRPV",2
13,Round 2 CTLA4BP-5x6-9d (ligand) VIHVTKEVKEVATLSCGHNVSVEELAQTRIHWQKEKKMVLTMMSGDMNIWPEYKNRTIFDITNNLSIVILALRPSDEGTYECVVLKYEKDAFKREHLAEVMLSVKADFPTPSISDFEIPTSNIRRIICSTSGGFPEPHLSWLENGEELNAINTTVSQDPETELYTVSSKLDFNMTANHSFVCLIKYGHLRVNQTFNWNTPKQEHFPDNLLPSWAITLISVNGIFVICCLTYCFAPRCRERRRNERLRRESVRPV,2
14,Round 2 CTLA4BP 2x4-g9 (ligand) VIHVTKEVKEVATLSCGHNVSVEELAQTRIYWQKDKKMVLTMMSGDMNIWPEYKNQTIFDITNNLSIVILALRPSDEGTYECVVLKYEKDAFKQEHLAEVMLSVKADFPTPSISDFEIPPSNIRRIICSTSGGFPEPRLAWMEDGEELNAISTTVSQDPGTELCTVSSKLDFNMTTNHSFMCLIRYGHLRVNQTFNWNTPKQEHFPDNLLPSWAITLISVKGIFVICCLTYCFAPRGRERKSNGRLRRESVHPV,1

# Source: US20050154189A1 (MAXYGEN, published 2005)
